{"source": "paper PMC5362816", "about": "“Calmodulin is responsible for Ca^2+-dependent regulation of TRPA1 Channels” (Scientific Reports, 2017)", "binders": {"B1": {"name": "CaMBD peptide (peptide)", "peptide": "LWYLRKVDQRSTIVYPN", "notes": "also called WT peptide; the 17AA; source: synthetic peptide (Biomatik)"}}, "key": {"[1]": {"biological_target": "T1, CaM-agarose (Sigma) (UniProt P62157 1-149, coupled to agarose)", "T1 construct": "calmodulin coupled to agarose, bought from Sigma; Commercial reagent; also called calmodulin; source: bought: Sigma (CaM-agarose)", "test": "pull-down; competition: purified GST-C1A1 fragment on CaM-agarose with 200 μM peptide (CaMBD peptide, scrambled peptide or CALP2)", "settings": "both partners purified"}, "[2]": {"biological_target": "T2, pure CaM (Sigma) (UniProt P62157 1-149)", "T2 construct": "pure calmodulin bought from Sigma; also called calmodulin; source: bought: Sigma", "test": "native gel or EMSA; 600 nM CaM incubated with different molar ratios of peptide; 10 mM Na-HEPES pH 7.2, 2 mM Ca2+, room temperature, 1 h; 12% non-denaturing PAGE with 2 mM Ca2+; silver staining (read-out: CaM band intensity, no mobility shift)", "settings": "both partners purified"}}, "data": [{"binder": "B1", "values": [{"measurement": "binding result", "setting": "[1]", "value": "binds"}, {"measurement": "binding result", "setting": "[2]", "value": "binds"}]}]}
